Data: article PMC11580435

Columns and labels:
[1] = tested on: 6xHis-BioID (Escherichia coli K-12); assay: EMSA; conditions: 50 mM Tris-HCl pH 8.0, 1 mM EDTA, 50 mM NaCl, 1 mM ATP, 1 mM MgCl2, 1 uM biotin, 10% glycerol; 30 min room temperature; 5% PAGE in 0.5x TAE at 4 C
[2] = tested on: 6xHis-BirA (Escherichia coli K-12); assay: EMSA; conditions: 50 mM Tris-HCl pH 8.0, 1 mM EDTA, 50 mM NaCl, 1 mM ATP, 1 mM MgCl2, 1 uM biotin, 10% glycerol; 30 min room temperature; 5% PAGE in 0.5x TAE at 4 C
[3] = tested on: 6xHis-TurboID (Escherichia coli K-12); assay: EMSA; conditions: 50 mM Tris-HCl pH 8.0, 1 mM EDTA, 50 mM NaCl, 1 mM ATP, 1 mM MgCl2, 1 uM biotin, 10% glycerol; 30 min room temperature; 5% PAGE in 0.5x TAE at 4 C
[4] = molecular target: 6xHis-BioID R118G (Escherichia coli K-12) (UniProt P06709); assay: EMSA; conditions: 50 mM Tris-HCl pH 8.0, 1 mM EDTA, 50 mM NaCl, 1 mM ATP, 1 mM MgCl2, 1 uM biotin, 10% glycerol; 30 min room temperature; 5% PAGE in 0.5x TAE at 4 C
[5] = molecular target: 6xHis-BirA (Escherichia coli K-12) (UniProt P06709); assay: EMSA; conditions: 50 mM Tris-HCl pH 8.0, 1 mM EDTA, 50 mM NaCl, 1 mM ATP, 1 mM MgCl2, 1 uM biotin, 10% glycerol; 30 min room temperature; 5% PAGE in 0.5x TAE at 4 C
MBP-BccP (S. flexneri) = MBP-BccP (S. flexneri) (UniProt P0ABE1)

biotin operator probe (112 bp)
binding signal (% probe shifted at 50 nM protein) [1]: 41
binding signal (% probe shifted at 50 nM protein) [2]: 93
binding signal (% probe shifted at 50 nM protein) [3]: 0.8

GCCATGGGGCTTCTCCAAAACGTGTTTTTTGTTGTTAATTCGGTGTAGGCTTGTAAACCTAAATCTTTTCAATTTGGTTTACAAGTCGATTATGACAACGGACGATCTTGCC (double strand) [biotin operator probe (112 bp)]
binding signal (% probe shifted at 50 nM protein) [4]: 41
binding signal (% probe shifted at 50 nM protein) [5]: 93

6×His-BioID (from UniProt P06709 1-321) (enzyme)
midpoint (t^50) of the in vitro biotinylation of MBP-BccP; 20 nM biotin ligase, 2 µM BccP, 37°C, streptavidin-HRP blot (MBP-BccP (S. flexneri)): 3.4 min

6×His-TurboID (from UniProt P06709 1-321) (enzyme)
midpoint (t^50) of the in vitro biotinylation of MBP-BccP; 20 nM biotin ligase, 2 µM BccP, 37°C, streptavidin-HRP blot (MBP-BccP (S. flexneri)): 14.6 min
